Data on 125 sequences can be found in the supplement of paper PMC9112550, “Optimization of the antimicrobial peptide Bac7 by deep mutational scanning” (BMC Biology, 2022).

This series concerns Escherichia coli TOP10. Put plainly: shrunken log2 fold change of peptide-encoding DNA abundance (4.5 h post-induction vs induction); higher = less antimicrobial activity (less host growth inhibition). To be noted: time post-induction: 4.5 h; library: site-saturation at positions 5, 18, 19, 20.
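Further: peptides expressed intracellularly from a pBAD plasmid library in pooled LB shake-flask culture, induced with 0.3% L-arabinose, DNA abundance read by NGS, three biological replicates, DESeq2 with apeglm shrinkage.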

RRIRERPPRLPRPRPRPGNTPRP: the “shrunken log2 fold change” value was -0.089.
Consider RRIRFRPPRLPRPRPRPVKPPRP, for which the “shrunken log2 fold change” value was -0.0579.
The same measure for RRIRHRPPRLPRPRPRPDPGPRP: -0.199; for RRIRRRPPRLPRPRPRPVATPRP: 1.15; for RRIRWRPPRLPRPRPRPATCPRP: 0.275.
As for RRIRLRPPRLPRPRPRPDVMPRP, the “shrunken log2 fold change” value is -0.269.
Consider RRIRCRPPRLPRPRPRPLPMPRP, for which the “shrunken log2 fold change” value stood at 0.074.
Take RRIRFRPPRLPRPRPRPMESPRP: the “shrunken log2 fold change” value came out at 0.0556.
The same measure for RRIRCRPPRLPRPRPRPKIVPRP: -0.29; for RRIRRRPPRLPRPRPRPEWWPRP: -0.0131.
Regarding RRIRDRPPRLPRPRPRPICMPRP, the “shrunken log2 fold change” value was -0.00256.
Take RRIRQRPPRLPRPRPRPQEGPRP: the “shrunken log2 fold change” value stood at 0.0274.
The value for RRIRYRPPRLPRPRPRPLDMPRP was -0.151; that for RRIRWRPPRLPRPRPRPSQNPRP was 0.236; that for RRIRYRPPRLPRPRPRPEIMPRP was -0.272.
As to RRIRFRPPRLPRPRPRPFDKPRP, the “shrunken log2 fold change” value was 0.00679.
The value for RRIRWRPPRLPRPRPRPWLTPRP was -0.0976; that for RRIRDRPPRLPRPRPRPNRGPRP was -0.0177; that for RRIRQRPPRLPRPRPRPFQCPRP was -0.247.
For the sequence RRIRRRPPRLPRPRPRPWHRPRP, the “shrunken log2 fold change” value was -0.113.
For the sequence RRIRARPPRLPRPRPRPAGAPRP, the “shrunken log2 fold change” value was 1.16.
In the case of RRIRQRPPRLPRPRPRPQIHPRP, the “shrunken log2 fold change” value is -0.246.
As for RRIRPRPPRLPRPRPRPDRVPRP, the “shrunken log2 fold change” value was 0.187.
Regarding RRIRQRPPRLPRPRPRPGKYPRP, the “shrunken log2 fold change” value is -0.17.
On to RRIRARPPRLPRPRPRPVRMPRP, for which the “shrunken log2 fold change” value worked out at 0.618.
Take RRIRTRPPRLPRPRPRPWTHPRP: the “shrunken log2 fold change” value was -0.0143.
As for RRIRGRPPRLPRPRPRPNREPRP, the “shrunken log2 fold change” value was -0.0791.
For the sequence RRIRNRPPRLPRPRPRPTPTPRP, the “shrunken log2 fold change” value stood at 0.674.
With RRIRCRPPRLPRPRPRPFPKPRP, the “shrunken log2 fold change” value is 0.131.
Take RRIRFRPPRLPRPRPRPEIPPRP: the “shrunken log2 fold change” value stood at 0.163.
In the case of RRIRARPPRLPRPRPRPEVNPRP, the “shrunken log2 fold change” value was found to be 0.291.
As for RRIRMRPPRLPRPRPRPGMKPRP, the “shrunken log2 fold change” value came to 0.282.
The same measure for RRIRCRPPRLPRPRPRPECSPRP: 0.231; for RRIRVRPPRLPRPRPRPHPLPRP: -0.435; for RRIRQRPPRLPRPRPRPVRYPRP: 0.0926.
As for RRIRERPPRLPRPRPRPLRVPRP, the “shrunken log2 fold change” value worked out at 0.269.
Consider RRIRWRPPRLPRPRPRPKSHPRP, for which the “shrunken log2 fold change” value was found to be 0.249.
RRIRHRPPRLPRPRPRPAIPPRP: the “shrunken log2 fold change” value is -0.112.
On to RRIRYRPPRLPRPRPRPGSCPRP, for which the “shrunken log2 fold change” value was -0.308.
Consider RRIRRRPPRLPRPRPRPVNGPRP, for which the “shrunken log2 fold change” value was 0.0578.
RRIRGRPPRLPRPRPRPHNQPRP: the “shrunken log2 fold change” value worked out at 0.05.
The value for RRIRGRPPRLPRPRPRPIYFPRP was -0.533; that for RRIRDRPPRLPRPRPRPWVLPRP was -0.00957; that for RRIRCRPPRLPRPRPRPDQKPRP was 0.0192.
As to RRIRNRPPRLPRPRPRPRRDPRP, the “shrunken log2 fold change” value was -0.0239.
On to RRIRKRPPRLPRPRPRPCGCPRP, for which the “shrunken log2 fold change” value was 0.249.
Regarding RRIRMRPPRLPRPRPRPHDEPRP, the “shrunken log2 fold change” value was -0.0018.
The value for RRIRCRPPRLPRPRPRPMSQPRP was -0.0148; that for RRIRIRPPRLPRPRPRPFFLPRP was -0.406; that for RRIRYRPPRLPRPRPRPMPWPRP was -0.0575.
On to RRIRWRPPRLPRPRPRPKGMPRP, for which the “shrunken log2 fold change” value is -0.159.
On to RRIRGRPPRLPRPRPRPGNGPRP, for which the “shrunken log2 fold change” value amounted to 0.434.
With RRIRERPPRLPRPRPRPPSKPRP, the “shrunken log2 fold change” value was -0.197.
In the case of RRIRQRPPRLPRPRPRPETAPRP, the “shrunken log2 fold change” value came out at 0.159.
As to RRIRKRPPRLPRPRPRPFRRPRP, the “shrunken log2 fold change” value turned out to be 0.0327.
RRIRARPPRLPRPRPRPECRPRP: the “shrunken log2 fold change” value came out at 0.874.
With RRIRHRPPRLPRPRPRPVAAPRP, the “shrunken log2 fold change” value is 0.202.
Turning to RRIRVRPPRLPRPRPRPDSCPRP, the “shrunken log2 fold change” value was -0.115.
As for RRIRERPPRLPRPRPRPSLPPRP, the “shrunken log2 fold change” value is -0.19.
As for RRIRARPPRLPRPRPRPRVCPRP, the “shrunken log2 fold change” value was 0.0904.
For the sequence RRIRFRPPRLPRPRPRPHTKPRP, the “shrunken log2 fold change” value was -0.0159.
In the case of RRIRYRPPRLPRPRPRPECRPRP, the “shrunken log2 fold change” value is -0.142.
For RRIRQRPPRLPRPRPRPDEHPRP, the “shrunken log2 fold change” value was found to be 2.14.
The same measure for RRIRKRPPRLPRPRPRPSAYPRP: -0.277; for RRIRIRPPRLPRPRPRPDGAPRP: -0.237; for RRIRARPPRLPRPRPRPSIGPRP: 0.111.
In the case of RRIRFRPPRLPRPRPRPHLHPRP, the “shrunken log2 fold change” value is -0.511.
Regarding RRIRERPPRLPRPRPRPVTLPRP, the “shrunken log2 fold change” value was -0.289.
RRIRCRPPRLPRPRPRPLIQPRP: the “shrunken log2 fold change” value was -0.457.
Turning to RRIRKRPPRLPRPRPRPVIKPRP, the “shrunken log2 fold change” value was 0.0845.
RRIRFRPPRLPRPRPRPFIPPRP: the “shrunken log2 fold change” value is -0.823.
The same measure for RRIRGRPPRLPRPRPRPPFVPRP: 0.803.
As to RRIRRRPPRLPRPRPRPNFAPRP, the “shrunken log2 fold change” value is 0.0508.
As for RRIRYRPPRLPRPRPRPFLSPRP, the “shrunken log2 fold change” value was -0.0547.
For the sequence RRIRYRPPRLPRPRPRPEPGPRP, the “shrunken log2 fold change” value came out at 0.215.
As to RRIRARPPRLPRPRPRPHLYPRP, the “shrunken log2 fold change” value was -0.218.
Consider RRIRQRPPRLPRPRPRPEAVPRP, for which the “shrunken log2 fold change” value amounted to 0.217.
Consider RRIRGRPPRLPRPRPRPSPCPRP, for which the “shrunken log2 fold change” value is -0.0911.
Regarding RRIRMRPPRLPRPRPRPNQAPRP, the “shrunken log2 fold change” value is -0.00973.
As to RRIRIRPPRLPRPRPRPHSHPRP, the “shrunken log2 fold change” value was -0.912.
With RRIRHRPPRLPRPRPRPKMMPRP, the “shrunken log2 fold change” value was determined as 0.00455.
The same measure for RRIRWRPPRLPRPRPRPRHPPRP: 0.382.
For RRIRLRPPRLPRPRPRPNYNPRP, the “shrunken log2 fold change” value was -0.74.
Regarding RRIRCRPPRLPRPRPRPCPLPRP, the “shrunken log2 fold change” value was -0.433.
Turning to RRIRGRPPRLPRPRPRPSGVPRP, the “shrunken log2 fold change” value is 0.633.
With RRIRQRPPRLPRPRPRPVQQPRP, the “shrunken log2 fold change” value worked out at 0.142.
For the sequence RRIRDRPPRLPRPRPRPCSKPRP, the “shrunken log2 fold change” value was 0.0354.
Regarding RRIRTRPPRLPRPRPRPIPYPRP, the “shrunken log2 fold change” value is -0.0288.
The value for RRIRPRPPRLPRPRPRPLCTPRP was 1.09; that for RRIRIRPPRLPRPRPRPHSTPRP was -0.428; that for RRIRWRPPRLPRPRPRPEHDPRP was -0.0282.
For the sequence RRIRERPPRLPRPRPRPCPKPRP, the “shrunken log2 fold change” value is -0.39.
Turning to RRIRQRPPRLPRPRPRPNEIPRP, the “shrunken log2 fold change” value was -0.217.
With RRIRSRPPRLPRPRPRPSVGPRP, the “shrunken log2 fold change” value was found to be 0.0671.
Consider RRIRPRPPRLPRPRPRPQRRPRP, for which the “shrunken log2 fold change” value is -0.359.
With RRIRNRPPRLPRPRPRPFTLPRP, the “shrunken log2 fold change” value is -0.884.
The value for RRIRLRPPRLPRPRPRPCAKPRP was 0.132; that for RRIRPRPPRLPRPRPRPQAEPRP was 0.113; that for RRIRFRPPRLPRPRPRPCFCPRP was -0.453.
With RRIRWRPPRLPRPRPRPIAMPRP, the “shrunken log2 fold change” value was found to be 0.256.
Turning to RRIRCRPPRLPRPRPRPVWYPRP, the “shrunken log2 fold change” value was -0.184.
Take RRIRIRPPRLPRPRPRPNWCPRP: the “shrunken log2 fold change” value is -0.26.
The same measure for RRIRGRPPRLPRPRPRPCPTPRP: 0.0246; for RRIRNRPPRLPRPRPRPPRVPRP: 0.379.
Take RRIRGRPPRLPRPRPRPMGNPRP: the “shrunken log2 fold change” value is 0.124.
Consider RRIRQRPPRLPRPRPRPFGAPRP, for which the “shrunken log2 fold change” value is -0.0476.
With RRIRVRPPRLPRPRPRPFWYPRP, the “shrunken log2 fold change” value was -0.308.
The same measure for RRIRSRPPRLPRPRPRPAGNPRP: -0.0422; for RRIRWRPPRLPRPRPRPDRVPRP: 0.0957.
With RRIRSRPPRLPRPRPRPAAHPRP, the “shrunken log2 fold change” value was determined as 0.154.
As to RRIRFRPPRLPRPRPRPDSGPRP, the “shrunken log2 fold change” value is -0.0156.
With RRIRVRPPRLPRPRPRPYKSPRP, the “shrunken log2 fold change” value is -0.492.
The same measure for RRIRCRPPRLPRPRPRPLAWPRP: -0.0538.
RRIRHRPPRLPRPRPRPKPQPRP: the “shrunken log2 fold change” value is 0.269.
As for RRIRGRPPRLPRPRPRPIRMPRP, the “shrunken log2 fold change” value was 0.0246.
RRIRVRPPRLPRPRPRPPETPRP: the “shrunken log2 fold change” value was -0.0362.
Turning to RRIRTRPPRLPRPRPRPCRYPRP, the “shrunken log2 fold change” value was found to be 0.0413.
The same measure for RRIRGRPPRLPRPRPRPTFHPRP: 0.366; for RRIRRRPPRLPRPRPRPKQIPRP: 0.289.
The same measure for RRIRGRPPRLPRPRPRPKHGPRP: 0.699; for RRIRVRPPRLPRPRPRPWFYPRP: -0.373.
Consider RRIRARPPRLPRPRPRPPNDPRP, for which the “shrunken log2 fold change” value was found to be 0.459.
The same measure for RRIRGRPPRLPRPRPRPIGYPRP: -0.017; for RRIRARPPRLPRPRPRPKVIPRP: 0.116; for RRIRHRPPRLPRPRPRPKPHPRP: 0.172.
